B1: KLHDC10 (parent)
chain: PSLLELAWEKLLAAFPNLANLSRT

Variants of: B1
Assay: protein stability index of a GFP-peptide fusion (GPS, HEK-293T) (PSI 1-6); higher = more stable
Conditions: c terminus: a fixed tail appended
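Further: lentivirally expressed fusions sorted by FACS into six bins by GFP to DsRed ratio, PSI derived from sequencing read proportions per bin multiplied by bin number.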

Row | Variant | protein stability index
1 | PSLLESAWEKLLAAFPNLANLSRT [L6S] | 2.28
2 | PSLLEMAWEKLLAAFPNLANLSRT [L6M] | 2.47
3 | PSLLEHAWEKLLAAFPNLANLSRT [L6H] | 1.59
4 | PSLLEDAWEKLLAAFPNLANLSRT [L6D] | 2.2
5 | PSLLEFAWEKLLAAFPNLANLSRT [L6F] | 2.01
6 | PSLLEGAWEKLLAAFPNLANLSRT [L6G] | 1.64
7 | PSLLEPAWEKLLAAFPNLANLSRT [L6P] | 1.86
8 | PSLLEEAWEKLLAAFPNLANLSRT [L6E] | 1.81
9 | PSLLENAWEKLLAAFPNLANLSRT [L6N] | 2.09
10 | PSLLEQAWEKLLAAFPNLANLSRT [L6Q] | 2
11 | PSLLERAWEKLLAAFPNLANLSRT [L6R] | 1.72
12 | PSLLETAWEKLLAAFPNLANLSRT [L6T] | 2.23
13 | PSLLEVAWEKLLAAFPNLANLSRT [L6V] | 2.33
14 | PSLHELAWEKLLAAFPNLANLSRT [L4H] | 2.88
15 | PSLIELAWEKLLAAFPNLANLSRT [L4I] | 2.01
16 | PSLYELAWEKLLAAFPNLANLSRT [L4Y] | 2.06
17 | PSLRELAWEKLLAAFPNLANLSRT [L4R] | 3.93
18 | PSLMELAWEKLLAAFPNLANLSRT [L4M] | 2.47
19 | PSLAELAWEKLLAAFPNLANLSRT [L4A] | 3.11
20 | PSLGELAWEKLLAAFPNLANLSRT [L4G] | 2.58
21 | PSLDELAWEKLLAAFPNLANLSRT [L4D] | 2.07
22 | PSLSELAWEKLLAAFPNLANLSRT [L4S] | 3.52
23 | PSLFELAWEKLLAAFPNLANLSRT [L4F] | 2.75
24 | PSLCELAWEKLLAAFPNLANLSRT [L4C] | 3.05

Row | Variant | protein stability index
25 | PSLKELAWEKLLAAFPNLANLSRT [L4K] | 3.92
26 | PSLQELAWEKLLAAFPNLANLSRT [L4Q] | 3.05
27 | PSLNELAWEKLLAAFPNLANLSRT [L4N] | 2.83
28 | PSLPELAWEKLLAAFPNLANLSRT [L4P] | 1.83
29 | PSLWELAWEKLLAAFPNLANLSRT [L4W] | 2.53
30 | PSLTELAWEKLLAAFPNLANLSRT [L4T] | 3.05
31 | PSLVELAWEKLLAAFPNLANLSRT [L4V] | 2.26
32 | PSLEELAWEKLLAAFPNLANLSRT [L4E] | 2.1
33 | PSILELAWEKLLAAFPNLANLSRT [L3I] | 1.56
34 | PSYLELAWEKLLAAFPNLANLSRT [L3Y] | 1.86
35 | PSCLELAWEKLLAAFPNLANLSRT [L3C] | 1.85
36 | PSELELAWEKLLAAFPNLANLSRT [L3E] | 1.83
37 | PSRLELAWEKLLAAFPNLANLSRT [L3R] | 2.06
38 | PSHLELAWEKLLAAFPNLANLSRT [L3H] | 1.75
39 | PSTLELAWEKLLAAFPNLANLSRT [L3T] | 1.97
40 | PSDLELAWEKLLAAFPNLANLSRT [L3D] | 2.16
41 | PSPLELAWEKLLAAFPNLANLSRT [L3P] | 1.72
42 | PSKLELAWEKLLAAFPNLANLSRT [L3K] | 2.33
43 | PSQLELAWEKLLAAFPNLANLSRT [L3Q] | 2.29
44 | PSALELAWEKLLAAFPNLANLSRT [L3A] | 2.24
45 | PSMLELAWEKLLAAFPNLANLSRT [L3M] | 1.65
46 | PSSLELAWEKLLAAFPNLANLSRT [L3S] | 1.7
47 | PSVLELAWEKLLAAFPNLANLSRT [L3V] | 1.73
48 | PSWLELAWEKLLAAFPNLANLSRT [L3W] | 1.9

Row | Variant | protein stability index
49 | PSGLELAWEKLLAAFPNLANLSRT [L3G] | 1.56
50 | PSFLELAWEKLLAAFPNLANLSRT [L3F] | 2.22
51 | PSNLELAWEKLLAAFPNLANLSRT [L3N] | 1.63
52 | PSLLELAVEKLLAAFPNLANLSRT [W8V] | 2.19
53 | PSLLELAQEKLLAAFPNLANLSRT [W8Q] | 2.88
54 | PSLLELALEKLLAAFPNLANLSRT [W8L] | 1.58
55 | PSLLELAHEKLLAAFPNLANLSRT [W8H] | 2.54
56 | PSLLELAIEKLLAAFPNLANLSRT [W8I] | 1.87
57 | PSLLELANEKLLAAFPNLANLSRT [W8N] | 2.37
58 | PSLLELASEKLLAAFPNLANLSRT [W8S] | 2.24
59 | PSLLELAEEKLLAAFPNLANLSRT [W8E] | 2.97
60 | PSLLELAYEKLLAAFPNLANLSRT [W8Y] | 2.04
61 | PSLLELAPEKLLAAFPNLANLSRT [W8P] | 3.21
62 | PSLLELAMEKLLAAFPNLANLSRT [W8M] | 1.95
63 | PSLLELAAEKLLAAFPNLANLSRT [W8A] | 1.77
64 | PSLLELAREKLLAAFPNLANLSRT [W8R] | 2.52
65 | PSLLELACEKLLAAFPNLANLSRT [W8C] | 1.85
66 | PSLLELATEKLLAAFPNLANLSRT [W8T] | 1.94
67 | PSLLELAKEKLLAAFPNLANLSRT [W8K] | 2.61
68 | PSLLELADEKLLAAFPNLANLSRT [W8D] | 2.37
69 | PSLLELAFEKLLAAFPNLANLSRT [W8F] | 2.56
70 | PSLLELAGEKLLAAFPNLANLSRT [W8G] | 2.78
71 | PRLLELAWEKLLAAFPNLANLSRT [S2R] | 1.82
72 | PYLLELAWEKLLAAFPNLANLSRT [S2Y] | 2.36

Row | Variant | protein stability index
73 | PVLLELAWEKLLAAFPNLANLSRT [S2V] | 1.86
74 | PTLLELAWEKLLAAFPNLANLSRT [S2T] | 1.96
75 | PWLLELAWEKLLAAFPNLANLSRT [S2W] | 1.94
76 | PSLLELAWWKLLAAFPNLANLSRT [E9W] | 1.14
77 | PSLLELAWDKLLAAFPNLANLSRT [E9D] | 2.22
78 | PSLLELAWAKLLAAFPNLANLSRT [E9A] | 1.84
79 | PSLLELAWNKLLAAFPNLANLSRT [E9N] | 2.62
80 | PSLLELAWGKLLAAFPNLANLSRT [E9G] | 2
81 | PSLLELAWTKLLAAFPNLANLSRT [E9T] | 2.39
82 | PSLLELAWLKLLAAFPNLANLSRT [E9L] | 2.29
83 | PSLLELAWYKLLAAFPNLANLSRT [E9Y] | 1.59
84 | PSLLELAWMKLLAAFPNLANLSRT [E9M] | 1.61
85 | PSLLELAWFKLLAAFPNLANLSRT [E9F] | 1.44
86 | PSLLELAWSKLLAAFPNLANLSRT [E9S] | 2.35
87 | PSLLELAWRKLLAAFPNLANLSRT [E9R] | 2.37
88 | PSLLELAWVKLLAAFPNLANLSRT [E9V] | 1.72
89 | PSLLELAWCKLLAAFPNLANLSRT [E9C] | 1.5
90 | PSLLELAWIKLLAAFPNLANLSRT [E9I] | 2.07
91 | PSLLELAWKKLLAAFPNLANLSRT [E9K] | 1.97
92 | PSLLELAWPKLLAAFPNLANLSRT [E9P] | 2
93 | PSLLELAWHKLLAAFPNLANLSRT [E9H] | 1.93
94 | PSLLELAWQKLLAAFPNLANLSRT [E9Q] | 2.34
